# Patent US20020114805A1
# B1: chimeric mouse/human IgG1 anti-platelet mAb (7E3) (antibody, INN chains, looked up, V domains shown)
# VH: EVQLQQSGTVLARPGASVKMSCEASGYTFTNYWMHWVKQRPGQGLEWIGAIYPGNSDTSYIQKFKGKAKLTAVTSTTSVYMELSSLTNEDSAVYYCTLYDGYYVFAYWGQGTLVTVSA
# VL: EIVLTQSPVTLSVTPGDSVSLSCRASRDISNNLHWFQQTSHESPRLLIKYASQSMSGIPSRFSGSGSGTDFTLSINSVETEDFGMYFCQQTNSWPYTFGGGTKLEIK
# modifications: chimeric IgG1
# Key:
# [1] = target: human lymphotoxin (TNFβ) (human) (UniProt P01374); assay: cell-based or functional assay
# [2] = target: human tumor necrosis factor-α (TNFα) (human) (UniProt P01375); assay: cell-based or functional assay
# human tumor necrosis factor-α (TNFα) (human), sequence (P01375 77-233): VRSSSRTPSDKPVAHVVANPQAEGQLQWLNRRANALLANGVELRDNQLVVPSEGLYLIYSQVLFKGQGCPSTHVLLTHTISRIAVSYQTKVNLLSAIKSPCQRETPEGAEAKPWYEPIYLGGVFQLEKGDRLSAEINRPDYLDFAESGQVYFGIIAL
# human lymphotoxin (TNFβ) (human), sequence (P01374 35-205 limits assumed): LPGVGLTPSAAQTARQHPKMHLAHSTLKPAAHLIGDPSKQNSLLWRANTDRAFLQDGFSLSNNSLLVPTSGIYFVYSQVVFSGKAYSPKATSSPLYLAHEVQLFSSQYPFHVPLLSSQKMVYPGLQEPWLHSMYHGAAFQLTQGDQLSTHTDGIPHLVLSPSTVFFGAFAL
molecule,measurement,setting,value
p55-sf2 TNF receptor/IgG1 fusion protein (from UniProt P19438) (Fc fusion),"amount needed for the same degree of inhibition of TNFβ cytotoxicity, against p75P-sf2 (fold against p75P-sf2)",[1],3
p75P-sf2 TNF receptor/IgG1 fusion protein (from UniProt P20333 23-204) (Fc fusion),"concentration to half-inhibit human TNFβ at 2 pM, WEHI 164 cytotoxicity assay",[1],31 pM
p75-sf2 TNF receptor/IgG1 fusion protein (from UniProt P20333 23-257) (Fc fusion),"amount needed for the same degree of inhibition of TNFβ cytotoxicity, against p75P-sf2 (fold against p75P-sf2)",[1],3
B1,"IL-6 in supernatant of FS-4 fibroblasts (ng/ml), rhTNF 0.3 ng/ml with 4 µg/ml antibody (no antibody: 1.36)",[2],1.6 ng/mL
same,"IL-6 in supernatant of FS-4 fibroblasts (ng/ml), rhTNF 1.5 ng/ml with 4 µg/ml antibody (no antibody: 2.00)",[2],1.96 ng/mL
same,"IL-6 in supernatant of FS-4 fibroblasts (ng/ml), rhTNF 7.5 ng/ml with 4 µg/ml antibody (no antibody: 2.56)",[2],2.16 ng/mL
